# Patent US20030233681, “ICE1, a regulator of cold induced transcriptome and freezing tolerance in plants” (Arizona Bd of Regents/Behalf of Univ. of Arizona, published 2003)
# Where a chain is given by its changes, count along the chain named.
# T1: ICE1 (Arabidopsis thaliana, UniProt Q9LSE2 SEQ:1-494)
# T1 sequence: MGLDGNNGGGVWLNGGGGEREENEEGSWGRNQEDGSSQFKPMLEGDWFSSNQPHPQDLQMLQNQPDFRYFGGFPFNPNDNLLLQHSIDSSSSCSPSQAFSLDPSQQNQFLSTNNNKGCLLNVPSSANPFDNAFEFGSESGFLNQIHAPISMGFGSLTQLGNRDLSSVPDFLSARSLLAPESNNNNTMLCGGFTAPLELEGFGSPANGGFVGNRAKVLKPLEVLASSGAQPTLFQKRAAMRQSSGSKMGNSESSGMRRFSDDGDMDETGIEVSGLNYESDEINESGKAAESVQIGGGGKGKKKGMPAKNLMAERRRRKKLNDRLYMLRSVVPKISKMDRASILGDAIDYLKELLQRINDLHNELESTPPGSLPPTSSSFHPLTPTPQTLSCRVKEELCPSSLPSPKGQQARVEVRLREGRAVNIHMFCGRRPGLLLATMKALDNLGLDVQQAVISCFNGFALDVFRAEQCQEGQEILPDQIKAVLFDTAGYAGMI
# T2: ice1 (R236H) (Arabidopsis thaliana, UniProt Q9LSE2 SEQ:1-494, R236H)
# T2 sequence: T1 sequence with R236H
# B1: MYC-3 (dsDNA)
# DNA 1: AATGTTACATTTGATCATTC
# DNA 2: GAATGATCAAATGTAACATT
# B2: MYC-1 (dsDNA)
# DNA 1: CATTTTACAATTGCTTCGCT
# DNA 2: AGCGAAGCAATTGTAAAATG
# B3: P2 (-909 to -890) (dsDNA)
# DNA 1: GACTCGTTTCGCGATCCGAT
# DNA 2: ATCGGATCGCGAAACGAGTC
# B4: MYC-4 (dsDNA)
# DNA 1: ACAATTACAACTGCATGCTT
# DNA 2: AAGCATGCAGTTGTAATTGT
# B5: MYC-2 (dsDNA)
# DNA 1: CTCTGGACACATGGCAGATC
# DNA 2: GATCTGCCATGTGTCCAGAG
# B6: P1 (-949 to -930) (dsDNA)
# DNA 1: ATATAATTAACTACTTTTAT
# DNA 2: ATAAAAGTAGTTAATTATAT
# Key:
# ICE1 [1] = molecular target: T1, ICE1; assay: EMSA; several complexes; weaker competitor than MYC-2; also represents MYC-5; details: tags: His tag N-terminal (pET14b, E. coli BL21 DE3); label: 32P
# Method: (§1) For competition experiments, unlabeled competitors were incubated with the His-ICE1 fusion protein on ice for 30 min prior to the addition of labeled probes.
# (§2) ICE1 has a basic helix-loop-helix (bHLH) domain and its amino acid sequence in the basic region is highly conserved with other bHLH proteins (FIG. 4B), and therefore may recognize promoter elements similar to the DNA-binding sites for known bHLH proteins. These proteins recognize DNA with the consensus sequence CANNTG (Meshi and Iwabuchi 1995). In the promoter region of CBF3, there are five potential MYC-recognition elements within a 1 kb region upstream of the transcription initiation site (Shinwari et al. 1998). These possible MYC-recognition sites, designated MYC-1 through MYC-5, fall into four groups because MYC-3 and MYC-5 share the same consensus sequence, CATTTG (FIG. 6A). Thus, MYC-3 was used to represent both MYC-3 and MYC-5. To determine whether ICE1 binds to these MYC-recognition sites in the CBF3 promoter, we expressed and purified His-ICE1 fusion protein from E. coli. Four DNA fragments encompassing each possible MYC-recognition site were used for interaction with His-ICE1 in an electrophoresis mobility shift assay (EMSA).
# (§3) The MYC-2 fragment formed one major complex with ICE1, while the other DNA fragments formed several complexes with ICE1. […]
# ICE1 [2] = molecular target: T1, ICE1; assay: EMSA; several complexes; weaker competitor than MYC-2; details: tags: His tag N-terminal (pET14b, E. coli BL21 DE3); label: 32P
# Method: as §1, §2, §3
# ICE1 [3] = molecular target: T1, ICE1; assay: competition; unlabeled non-related competitor does not compete; 50-250 fold excess; details: tags: His tag N-terminal (pET14b, E. coli BL21 DE3)
# Method: (§4) The wild type and mutant ICE1 cDNAs were amplified by RT-PCR and inserted into NdeI and BamHI sites in the expression vector pET14b (Novagen). Wild-type and mutant His-ICE1 fusion proteins were prepared from E. coli cells (BL21 DE3) according to the instruction manual of His-Bind Buffer Kit (Novagen). The electrophoresis mobility shift assay (EMSA) was carried out as described (Hao et al. 1998). The following double-stranded oligonucleotides listed in FIG. 6A (MYC-1, MYC-2, MYC-3, MYC-4 and MYC-5) were used as probes and competitors in EMSAs. Nucleotide sequences P1 (−949 to −930) and P2 (−909 to −890) were also used as competitors. P1 contains a putative MYB-recognition site. […] DNA probes were end-labeled with [γ-³²P]dCTP using the Klenow fragment and purified through a Sephadex G-50 column. The labeled probes (ca 0.02 pmol) were incubated for 20 min at room temperature with 2.3 μg of purified His-ICE1 fusion protein in 1×binding buffer (Hao et a.1998) supplemented with 20 pmol poly(dI-dC). The resulting DNA-protein complexes were resolved by electrophoresis on a 6% polyacrylamide gel in 0.5×TBE buffer and visualized by autoradiography. For competition experiments, unlabeled competitors were incubated with the His-ICE1 fusion protein on ice for 30 min prior to the addition of labeled probes. […]
# ice1 (R236H) = molecular target: T2, ice1 (R236H); assay: EMSA; R236H mutant still binds; details: tags: His tag N-terminal (pET14b, E. coli BL21 DE3); label: 32P
# Method: as §4
# ICE1 [4] = molecular target: T1, ICE1; assay: EMSA; one major complex; strongest of the sites by competition; poly(dI-dC), room temperature 20 min; details: tags: His tag N-terminal (pET14b, E. coli BL21 DE3); label: 32P
# Method: as §4
# ICE1 [5] = molecular target: T1, ICE1; assay: competition; unlabeled competitor with putative MYB site does not compete; 50-250 fold excess; details: tags: His tag N-terminal (pET14b, E. coli BL21 DE3)
# Method: as §4
binder,measurement,setting,value
B1,binding result,ICE1 [1],binds
B2,binding result,ICE1 [2],binds
B3,binding result,ICE1 [3],no binding
B4,binding result,ICE1 [2],binds
B5,binding result,ice1 (R236H),binds
same,binding result,ICE1 [4],binds
B6,binding result,ICE1 [5],no binding
